Laboratory results from IntAct's records for PubMed 17174311.

B1: Serine/threonine-protein kinase PLK4 (Mus musculus), Q64702 (parent)
chain: MAACIGERIEDFKVGNLLGKGSFAGVYRAESIHTGLEVAIKMIDKKAMYKAGMVQRVQNEVKIHCQLKHPSVLELYNYFEDNNYVYLVLEMCHNGEMNRYLKNRMKPFSEREARHFMHQIITGMLYLHSHGILHRDLTLSNILLTRNMNIKIADFGLATQLNMPHEKHYTLCGTPNYISPEIATRSAHGLESDIWSLGCMFYTLLIGRPPFDTDTVKNTLNKVVLADYEMPAFLSREAQDLIHQLLRRNPADRLSLSSVLDHPFMSRNPSPKSKDVGTVEDSMDSGHATLSTTITASSGTSLSGSLLDRRLLVGQPLPNKITVFQKNKNSSDFSSGDGSNFCTQWGNPEQEANSRGRGRVIEDAEERPHSRYLRRAHSSDRASPSNQSRAKTYSVERCHSVEMLSKPRRSLDENQHSSNHHCLGKTPFPFADQTPQMEMVQQWFGNLQMNAHLGETNEHHTVSPNRDFQDYPDLQDTLRNAWTDTRASKNADTSANVHAVKQLSAMKYMSAHHHKPEVMPQEPGLHPHSEQSKNRSMESTLGYQKPTLRSITSPLIAHRLKPIRQKTKKAVVSILDSEEVCVELLRECASEGYVKEVLQISSDGTMITVYYPNDGRGFPLADRPPLPTDNISRYSFDNLPEKYWRKYQYASRFIQLVRSKTPKITYFTRYAKCILMENSPGADFEVWFYDGAKIHKTENLIHIIEKTGISYNLKNENEVTSLKEEVKVYMDHANEGHRICLSLESVISEEEKRSRGSSFFPIIVGRKPGNTSSPKALSAPPVDPSCCKGEQASASRLSVNSAAFPTQSPGLSPSTVTVEGLGHTATATGTGVSSSLPKSAQLLKSVFVKNVGWATQLTSGAVWVQFNDGSQLVVQAGVSSISYTSPDGQTTRYGENEKLPEYIKQKLQCLSSILLMFSNPTPNFQ

Variants of: B1
Settings: with MBP

| Variant | effect of a mutation on the interaction |
| --- | --- |
| D154N | disrupting interaction |

Variants of: B1
Settings: with ccnb3_human CCNB3, Q8WWL7
Sequence of ccnb3_human CCNB3, Q8WWL7 (Q8WWL7 whole entry): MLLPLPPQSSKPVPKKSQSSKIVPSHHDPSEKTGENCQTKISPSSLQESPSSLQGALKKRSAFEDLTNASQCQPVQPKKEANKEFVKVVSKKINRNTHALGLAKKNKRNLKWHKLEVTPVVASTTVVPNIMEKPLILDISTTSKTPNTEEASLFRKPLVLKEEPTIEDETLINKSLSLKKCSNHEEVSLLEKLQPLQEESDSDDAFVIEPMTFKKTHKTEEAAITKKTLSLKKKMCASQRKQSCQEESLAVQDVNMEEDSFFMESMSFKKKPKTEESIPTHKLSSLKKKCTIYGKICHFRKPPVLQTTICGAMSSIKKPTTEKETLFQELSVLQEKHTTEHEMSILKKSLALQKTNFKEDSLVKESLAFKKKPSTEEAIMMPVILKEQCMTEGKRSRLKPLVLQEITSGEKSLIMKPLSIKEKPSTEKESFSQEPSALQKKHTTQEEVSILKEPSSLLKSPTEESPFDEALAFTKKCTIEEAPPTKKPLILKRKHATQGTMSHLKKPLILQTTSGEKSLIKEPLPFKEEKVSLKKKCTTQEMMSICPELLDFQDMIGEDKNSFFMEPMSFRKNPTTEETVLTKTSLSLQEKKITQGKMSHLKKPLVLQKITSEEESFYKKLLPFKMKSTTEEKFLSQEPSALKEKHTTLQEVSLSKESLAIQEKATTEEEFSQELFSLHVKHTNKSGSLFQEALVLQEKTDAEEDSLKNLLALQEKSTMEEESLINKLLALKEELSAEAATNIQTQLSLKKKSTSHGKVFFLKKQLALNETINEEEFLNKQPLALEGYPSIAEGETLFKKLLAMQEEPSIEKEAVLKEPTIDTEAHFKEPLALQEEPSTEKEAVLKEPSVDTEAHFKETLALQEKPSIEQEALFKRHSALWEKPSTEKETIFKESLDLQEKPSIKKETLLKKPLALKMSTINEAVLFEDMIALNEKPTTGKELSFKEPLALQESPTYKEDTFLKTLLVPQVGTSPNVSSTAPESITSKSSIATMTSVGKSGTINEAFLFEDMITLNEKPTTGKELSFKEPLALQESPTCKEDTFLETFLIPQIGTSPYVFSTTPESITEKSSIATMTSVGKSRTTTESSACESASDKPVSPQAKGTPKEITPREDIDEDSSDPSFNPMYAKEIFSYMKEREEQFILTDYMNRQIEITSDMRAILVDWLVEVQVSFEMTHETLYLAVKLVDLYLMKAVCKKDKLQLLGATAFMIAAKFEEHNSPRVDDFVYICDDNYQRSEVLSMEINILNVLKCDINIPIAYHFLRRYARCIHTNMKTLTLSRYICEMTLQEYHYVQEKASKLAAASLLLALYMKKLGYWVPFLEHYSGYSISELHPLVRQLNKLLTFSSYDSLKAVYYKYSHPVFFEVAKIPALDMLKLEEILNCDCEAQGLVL

| Variant | effect of a mutation on the interaction |
| --- | --- |
| D154N | disrupting interaction |
